Experimental data: patent KR20220012810A (dated 2022)

Experiments:
HCoV-HKU1 S1 = biological target: T1, HCoV-HKU1 S1 (HCoV-HKU1, UniProt Q5MQD0 13-760); assay: BLI (Octet)
T1 construct: domain: S1
T1 sequence: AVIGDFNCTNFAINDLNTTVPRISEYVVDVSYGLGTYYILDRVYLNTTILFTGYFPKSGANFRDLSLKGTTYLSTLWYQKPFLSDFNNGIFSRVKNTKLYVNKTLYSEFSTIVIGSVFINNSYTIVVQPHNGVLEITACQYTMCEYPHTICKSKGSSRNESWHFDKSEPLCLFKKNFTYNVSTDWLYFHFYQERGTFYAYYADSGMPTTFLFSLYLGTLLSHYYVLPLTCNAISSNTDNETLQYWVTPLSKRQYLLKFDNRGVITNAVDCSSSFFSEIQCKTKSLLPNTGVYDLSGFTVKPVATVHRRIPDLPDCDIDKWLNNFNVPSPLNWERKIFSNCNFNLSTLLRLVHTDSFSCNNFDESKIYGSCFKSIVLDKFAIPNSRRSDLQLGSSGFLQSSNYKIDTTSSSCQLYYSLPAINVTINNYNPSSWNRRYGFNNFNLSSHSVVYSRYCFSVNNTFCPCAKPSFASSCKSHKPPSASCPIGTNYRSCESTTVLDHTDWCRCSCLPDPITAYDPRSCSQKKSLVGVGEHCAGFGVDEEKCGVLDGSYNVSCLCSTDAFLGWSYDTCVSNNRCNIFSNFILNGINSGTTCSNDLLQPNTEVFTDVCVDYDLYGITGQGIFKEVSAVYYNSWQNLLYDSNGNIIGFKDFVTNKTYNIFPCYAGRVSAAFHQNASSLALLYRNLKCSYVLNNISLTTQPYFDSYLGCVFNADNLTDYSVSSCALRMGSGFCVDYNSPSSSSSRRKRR

MERS-CoV RBD = biological target: T2, MERS-CoV RBD (MERS-CoV, UniProt K9N5Q8 367-606); assay: BLI (Octet)
T2 sequence: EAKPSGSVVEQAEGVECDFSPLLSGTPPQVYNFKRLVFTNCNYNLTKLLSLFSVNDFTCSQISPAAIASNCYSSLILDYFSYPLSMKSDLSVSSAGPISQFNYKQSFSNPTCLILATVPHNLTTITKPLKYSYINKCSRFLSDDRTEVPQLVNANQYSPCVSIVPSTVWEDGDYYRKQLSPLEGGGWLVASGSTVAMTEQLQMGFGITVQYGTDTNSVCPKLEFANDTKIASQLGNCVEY

SARS-CoV S1 = SARS-CoV S1 (SARS-CoV, UniProt P59594 14-667); assay: BLI (Octet)
[1] = biological target: SARS-CoV-2 spike 'D614 or G614' (pseudovirus) (SARS-CoV-2, UniProt P0DTC2 14-1273); assay: cell-based or functional assay
[2] = biological target: SARS-CoV-2 spike D614 (pseudovirus) (SARS-CoV-2, UniProt P0DTC2 14-1273); assay: cell-based or functional assay

B1: No. 139 항체 (Full IgG) (antibody, V domains shown)
VH: QITLKESGPTLVKPTQTLTLTCSFSGFSLSTSGVGVGWIRQPPGKALEWLALIDWDDNKYHTTSLKTRLTISKDTSKNQVVLTMTNMDPVDTATYYCARIPGFLRYRNRYYYYGMDVWGQGTTVTVSS
VL: ELVLTQPPSVSAAPGQKVTISCSGSSSNIGNNYVSWYQQLPGTAPKLLIYDNNKRPSGIPDRFSGSKSGTSATLGITGLQTGDEADYYCGTWDSSLSAGVFGGGTELTVL
B1: no binding (HCoV-HKU1 S1); no binding (MERS-CoV RBD); no binding (SARS-CoV S1). For the same binder, the “IC50, pseudovirus neutralisation” value [1] was 0.35 ng/mL and the “IC50, pseudovirus neutralisation” value [2] was 0.378 ng/mL.
